Results from the domain aggregation screens of Martell et al. (2025).

Assay: soluble fraction after stress (log2 fold change); higher = more stays soluble; pooled small domains, quantitative proteomics
Details: stress: 75 degC
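Also: 20 min heating vs room temperature control held 20 min.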

Sequence	soluble fraction (log2)
HMRMTKQRQAVLDELTRVTDFRSAQQIFEDLHSQGHRVGLATIYRSLQGLAEDGSVDTLRSSDGESLY	-0.206
HMIKLIKKDTNISELKMSKMPWDVMLYGKPYQVVSIKGYVHTIGGRRGENDLWMYPRDESPTYENLIEFQ	-2.19
HMQPSQTLSATVEFPDRLDRFLALAFPEVSRARFQRLIAEGHVSVEGVPATEIRHKLKAGQRVEAVIPPA	-0.276
HMEEINTAPVFKNIIEIAEYAKTKFTTVEEIPKMIEFIETANSKLDNPHDEESVNELINALSTNIRKNV	0.347
HMAFAVWVKLVAIGPNYAQLEIEQGTQRNVRTLRPGDDAPEGVRLLSLTPTHAEVQANGIARKLALGQGMA	-3.22
HMIYWGTMVDKIYEVLSLAGKPLSLMEIYQQVKVFFPNSTKSSIEASMRLDARHRFKYDVEGHVYSLVD	-3.44
HMDDILAYEIEDKEDLENLSLGKSIGINLNKLIKPTLNSFDNSLLFLSKKGNIISYGKLNGDLFKPKKVL	0.346
HMRGGKGTVPDVTGMDAAAAVRILEKAGMNVAYIRGAGFVAEQTPAAGTKLKKGDKAYITLSWK	-0.622
HMQARDQNVDEGKALLEKEFSRLALENLDRDKLANAVNYPTRDDMYAAIGAGDLRVGQVLHQAQQLF	0.226
HMTPFLVRVDISDLNIRTGAGTNYSRTGQYTGKGIFTILEVKSGQGSDAGWGRLKSGAGWISLDYTTR	-2.84
HMSALTELPVKTVNGKKYHYYVVKQHETVYALSKRFGITPEQLIKYNPSAEDGLQIDQELLFPATEI	-0.353
HMPGKVSDAGATAKDNRLFLEAVFWRVRTGSPWRDLPPAFGHWNSQFRRFRRWAKAGVFESLFNA	0.182
HMKTILEKDQRLAKYISYLIKRKRLSPEQVIEHLKTDDHGYEKYPKSINTIYAAIDKGLIPSVTRQDM	-0.509
HMDKSFLQSLHLIALGIVKNQMDPWELVNGWVEYYLKNKDKYIDHPNLKAVAVLKMKGLFIDHFRKS	-5.84
HMPPRFVPATGADLRRWLDVSGLTAEAAGDLLGVSGARFRQWLSRYRSAPLPDPVRALLVALLRP	-0.00746
HMGNKWKPIILYLLSNGSMRFGMLNALIPTISKKVLTNQLKELENDGLLLRQSFAEIPPRVEYSLTEKA	-2.31
HMSHDTLVYRLAQMLVKLNQGEKLDPQQLAEEFGVNLRTIQRDLNVRFAYLQLEKTDGRYHLDPTFL	-1.46
HMTRPLVILEDVKFPSYNEIVSLTLPDGTRRGGQVLEVSGNKAIVQVFEGTSGIDVKDTHIELTKSS	0.237
HMYPEDMMSLMRRALRLINHLESNRKDRHNSRQLELTESKIRRLARYYKGRGLIETEWAYKRDQLRLLV	-0.532
HMPFESEMKHWIHLFAHELNLKVSDKYTQKIIEIFGNNFSEIFNEMSKSSLVSSNEKDLLNALEKSGNIH	-0.799
HMRAVFEQLRIGQTLAGVVKAQEKGFSLVEIDGQTVAMRLPHPAAVGDTLRLRFAGHMPQAVFLLES	-1.99
HMNSLGYSDFVVDVQNERVASVVIEGLIINGERRDGTKFRTVLPTIGDQRLMDDLINHNVKVLARE	-0.375
HMKEDSTIIERIISNLSSASLKTQKAFEYKLTDLMFRFSEGEYEWSSAMEVIREELLPFLNK	0.0891
HMDDGALQIRLGPQALQQRLDKLGYSLNKEDLDLVYQYFLHSADSKGAVYDQELRELMGEAGVE	-0.102
HMKTRNISGNHEAVWQAVRSRTQAGHPTTRAVIMDDLKAQGLNTQKFSRWLKKLVDDGSVYMDGDTIIMGK	-0.306
HMEDDRLIQNLLLTAKNLVMDVGRMDESALAENEDTVRTAMLFALGYLYENRSNPDYHKLTLNLRSILFA	-0.38
HMGELGPGSRGQAVRALQERLMALGFPLARFGADGIFGRETTGALRAFQHVAGLSPTGLGDHETLKWLGII	-1.33
HMVREVGYNAFLAMLDSGAVKEVARDESEGQITFLATDEKGKERVYKTGIWPDDTLTERLNTAGVEFA	0.351

Sequence	soluble fraction (log2)
HMTSEPFYNPRRPQPYWTSETDRHTTYADAVRALAREFSETPEWVESNMGETNDLQEIRRNLSRVKSG	0.125
HMSAQDLIVRRDSARIEARVTEISPTEIRYKRASNPDGPTYVLPLGDVRSIRYANGEEEVFAPA	-0.223
HMRILGIDPGTRITGYGIIDIEGNRLRHVDNGIIKTRSSDALPLRLKVIYDGLTAVLKQYSPQAV	0.23
HMTDSLELADLLRRAIITGEYKPRERLVEMELAQKYSVSRTPVREALKHLEALGLVKMERYKGAMVAD	-0.911
HMKKAENEKLNIPYDVTEFLASSIKDDIRMMEGAMVKLLALSSLTKQDITQSLAKRVIQDVLGSSA	-0.209
HMKFYIHEIIGFNAVDKVAGIVGKVININEDSPQKKLVVNYNGKEVFIPLVDEIVRKIDKQKNEVLITMP	0.00585
HMTKLTTDERSVYLHIQNKPGVSASSIREALGYKKSKLTSILAQLLEVHKIIDTEGTGKSLKYIL	0.0994
HMSSETTVPAVVGIKEDKARQLASEQGLRLRVKSREESADVEEGIIISQDPNSNTKVKKGDEIEVVVS	0.102
HMTNATVGQIKKLARASILYGNSNLSGNRYTYKANTTVTILQNISSNVDKIRVNVTGRVAYIDNSNYSSST	-3.59
HMAEAIVMSTAAPVKSSPDPQSKDIFVLHEGTKVAVGDSLGDWREIRIADGNKGWVLVSAIEMI	0.0397
HMEASSTAIQAMIRRLIDDENPRKPLSDAKLADLLKSSGIPVARRTVAKYREAMNISASHERVRI	-0.793
HMGNAQELQKKLEGLKGISGIEKLESDHYAEKYLVRITQPVDHKNPAAGTFTQRVIVAHVGFDRPTILVT	0.51
HMTDLALHIGKTLRELRQRRGWSLDKTAQATGVSKAMLGQIERGESSPTVVTLWRISSGLQASFSEFLPP	-3.69
HMLTGESDNVEKSINKLGTENLALADQTNMGFKGTFINSGHGMAIVVKTGMQTELGKIASMIQIA	0.218
HMSNSGFVKNNGKTEFYDASGRQAKSSWINISGKWYYFDLNGTMVTGWQRISNKWYYFLEDGSK	-0.0724
HMITAEQENILFEKASDDISNNIINKGIWTKAYSQAGGDESKQKAIYIDLLVNYYKMLIKAGEEFEDI	-2.42
HMAAEGARNNSLFNSLRERALEVSSHNELEQIAFKMNETNIPPLRASEVISVVNSVWKNRISNQIIP	0.266
HMTLGARTLAAIQSLPKVQQAVFTMKHFEGLKYREISQITGTSEGALKASYHIALEKIKAFLREK	-2.18
HMVDFHAAYSILRIAPGASWQEIQAAYEKLNDAWREDRYPQVPFWNEKAAFKRREVEQAYEKLRKFHALRH	-2.43
HMIFRPALITDLDAVERHYTELLTREAETGRSSTNWSLGVYPTRQTATAAQAAGTLWVLEREGQVVASVI	-0.0961
HMEEMTIRQKRTMIFFIEATKHILQEDGYDHLTIREIAQRAGYNAATLYHYFRDLDELIIYGSVG	-0.439
HMTQEAMRSLRKSLQNLSSRQQVIFMLRHYEGLALKEIAEHLGLETGTVKAHLHRAVTQLRKDLVE	-1.85
HMGQEEKDIFLKLINISGIGPKLALNILSGIEASELEEAVRNTNVTRLSMVPGIGQKTALRIIMELSDKLE	-0.298
HMRRPRGVFNLVPGKRFGFITPDGGGEDVFAHLANVRAGHVAEDRNAVEYGIGRGPDGRDQAVDIVPMP	-0.329
HMLFQGDTPAENIILEILSKNGTTASDSIIKQSGLSVSDFNQAATMLEIKGLISNNGGNIWSL	-0.0591
HMGALSLDMLFDRFDALQEQSMGDKTEGGQELRGMIRTFIEQEKLDIRVTRTTTNAALLEMIEKEMQG	-0.717
HMDEALLRATLLDVLVKHHPKIGDKLDVVFALAKAWVSSGSDDDFEVLEKYMERLKPDEALMLASGFSNML	-0.886
